Results on one molecule are retold here after patent US20240165255A1 (FRED HUTCHINSON CANCER CENTER, published 2024).

This test deals with folate receptor alpha (FOLR1) on MV4;11 FOLR1+ cells and on CBF/GLIS-transduced CB HSPCs (UniProt P15328 25-234, limits assumed). Briefly: cell-based or functional assay.
folate receptor alpha (FOLR1) on MV4;11 FOLR1+ cells and on CBF/GLIS-transduced CB HSPCs, sequence (P15328 25-234 limits assumed): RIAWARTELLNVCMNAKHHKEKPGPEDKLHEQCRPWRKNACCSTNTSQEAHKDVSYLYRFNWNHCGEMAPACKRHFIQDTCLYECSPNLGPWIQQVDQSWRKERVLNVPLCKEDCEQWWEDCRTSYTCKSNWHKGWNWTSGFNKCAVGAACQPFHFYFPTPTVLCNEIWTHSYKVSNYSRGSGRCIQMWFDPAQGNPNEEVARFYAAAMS

B1: FOLR1-directed site-specific antibody-drug Conjugate P (IgG antibody with VH region SEQ ID NO: 362 and VL region SEQ ID NO: 367, conjugate formula P, n=4) (antibody, V domains shown)
VH: EVQLVESGGGLVQPGGSLRLSCAASGFNIRTQSIHWVRQAPGKGLEWIGDIFPIDGITDYADSVKGRFTISADTSKNTAYLQMNSLRAEDTAVYYCARGSWSWPSGMDYYLDYWGQGTLVTVSS
VL: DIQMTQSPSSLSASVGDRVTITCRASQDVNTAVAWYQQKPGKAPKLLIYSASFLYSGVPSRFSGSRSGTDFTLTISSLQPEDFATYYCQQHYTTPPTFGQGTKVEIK
modifications: para-azidomethylphenylalanine residues substituting for Y180 and F404 of each VH region (so in the source); heavy chain positions), conjugated according to conjugate formula P, n=4 (hemiasterlin drug-linker)
Consider B1, for which the “in vitro cytotoxicity IC50 (printed as '1050s') against CBF/GLIS-transduced CB HPSCs (which upregulate FOLR1)” value was found to be 4.2 nM and the “in vitro cytotoxicity IC50 (printed as '1050s') against MV4;11 AML cell line engineered to express FOLR1 (MV4;11 FOLR1+)” value was 0.1 nM.
